“And” between values parts separate entries of the source, which are not always exact repeats. Equal values may be shown once.
B1: 11-11 Fab (Fab, V domains shown)
VH: QVQLQESGPGLVKPSQTLSLTCTVSGGSISSGGYYWSWIRQHPGKGLEWIGYIYYSGSTYYNPSLKSRVTISVDTSKNQFSLKVSSVTAADTAVYYCASSNYYDGSGYNLLESYGMDVWGQGTSVTVSS
VL: QSVLTQPPSVSGAPGQRVTISCTGSSSNIGAGYDVHWYQQLPGTAPKLLIYGNSNRPSGVPDRFSGSRSGTSASLAITGLQAEDEADYYCQSYDSSLSGSWVFGGGTKVTVL
B2: 10-40 Fab (Fab, V domains shown)
VH: QLQLQESGPGLVKPSETLSLTCTVSGGSISSSNFYWGWIRQPPGKGLEWIASITYSGRTFYNPSLKSRVAISVDTSKNQFSLKLSSVTAADTAVYYCARTFPSYYDRSGYHYLNYGMDVWGQGTTVTVSS
VL: NFMLTQPHSMSESPGKTVTISCTRSSGSIASNYVQWYQQRPGSSPTTVIYEDNQRPSGVPDRFSGSIDSSSNSASLTISGLKTEDEADYYCQSYDSSSWVFGGGTKLTVL
B3: 10-28 Fab (Fab, V domains shown)
VH: QVQLVESGGGVVQPGRSLRLSCAASGFTFSSYDMHWVRQAPGKGLEWVAVISYDGSSKFYAESVKGRFTISRDNSKNTLYLQMNSLRAEETAVYYCVKDGEQLVPLFDYWGQGTLVTVSS
VL: not shown

Assays:
[1] = biological target: S2P-prefusion-stabilized spike protein from SARS-CoV-2 B.1.351 (SARS-CoV-2, B.1.351 (Beta), strain); experiment: cryo-EM structure
[2] = biological target: S2P-prefusion-stabilized spike protein from SARS-CoV-2 WA-1 (SARS-CoV-2, WA-1, UniProt P0DTC2, stabilised); experiment: cryo-EM structure

Binder | stoichiometry N [1] | binding result [2]
B1 | 3 Fabs per spike and 2 Fabs per spike | binds
B2 | 3 Fabs per spike | binds
B3 | 3 Fabs per spike | binds
